Data on 5 molecules can be found in article PMC11500471 (Protein Science : A Publication of the Protein Society, 2024).

In data set [1] the target is GRPEL2, human, recombinant, without mitochondrial targeting sequence, His tag kept (human) (UniProt Q8TAA5). Nature of the data set: SEC-MALS.
The target of data set [2] is GRPEL1, human, recombinant, without mitochondrial targeting sequence, His tag kept (human) (UniProt Q9HAV7). Nature of the data set: SEC-MALS. Background: Size exclusion chromatography separates by hydrodynamic size, large species first.
Data set [3] concerns the target mitochondrial HSP70 (mtHSP70), human, recombinant, His-tagged (human) (UniProt P38646). Nature of the data set: SEC-MALS.
Data set [4] shares this target. The experiment in a line: MST.
The target is the same in data set [5]. The experiment in a line: MST. The source holds these as a separate data set.
The target is the same in data set [6]. The experiment in a line: MST. The source holds these as a separate data set.
The data set “SEC-MALS” deals with the molecule itself. Nature of the data set: SEC-MALS.

Residue numbers refer to the chain shown, from its start. In names and notes the source's numbering stands. Several values for one entry are separate records, joined by “and”; a condition that tells them apart may be missing. Equal values may be shown once. Read-outs that look alike come from different tables or passages of the source.

What is called stoichiometry N is the number of molecules, sites or subunits per partner or assembly. Regarding “GRPEL2, human, recombinant, without mitochondrial targeting sequence, His tag kept (from UniProt Q8TAA5 33-225) (natural protein)”, the stoichiometry N in data set [1] is 2 and 4.

Take “GRPEL1, human, recombinant, without mitochondrial targeting sequence, His tag kept (from UniProt Q9HAV7 28-217) (natural protein)”: the stoichiometry N in data set [2] is 2 and 4. For the same molecule, in data set [3], the stoichiometry N (GRPEL1 per mtHSP70 (2:1 complex)) was 2 and the stoichiometry N (GRPEL1 per mtHSP70 (2:2 complex)) was determined as 1.

B1: GRPEL2, human, recombinant, without mitochondrial targeting sequence, His tag cleaved at the TEV site (natural protein)
chain: STATQRTAGEDCRSEDPPDELGPPLAERALRVKAVKLEKEVQDLTVRYQRAIADCENIRRRTQRCVEDAKIFGIQSFCKDLVEVADILEKTTECISEESEPEDQKLTLEKVFRGLLLLEAKLKSVFAKHGLEKLTPIGDKYDPHEHELICHVPAGVGVQPGTVALVRQDGYKLHGRTIRLARVEVAVESQRRL
By Kd is commonly meant the concentration at which binding is half-saturated. For B1, the figures for the Kd in data set [4], in data set [5] and in data set [6] were 942 nM, 373 nM and 152 nM, respectively.

B2: GRPEL2-C97A, human, recombinant, without mitochondrial targeting sequence, His tag kept (natural protein, UniProt Q8TAA5 33-225, looked up)
chain: B1 chain with C65A
For B2, in data set [5], the Kd was determined as 457 nM. Also, in the data set “SEC-MALS”, the “stoichiometry N” value was 2 and 4.

B3: GRPEL2-C87A, human, recombinant, without mitochondrial targeting sequence, His tag kept (natural protein, UniProt Q8TAA5 33-225, looked up)
chain: B1 chain with C55A
In the case of B3, the Kd in data set [4] amounted to 204 nM; in data set [5] it was 203 nM. Also, in the data set “SEC-MALS”, the “stoichiometry N” value was 2 and 4.
